Measurements from publication PMC4433160.

T1: human beta defensin 3 (HBD3) (human, UniProt P81534 23-67)
T1 chain: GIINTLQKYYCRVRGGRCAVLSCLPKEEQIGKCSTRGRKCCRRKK

T2: human beta defensin 2 (HBD2) (human, UniProt O15263 24-64)
T2 chain: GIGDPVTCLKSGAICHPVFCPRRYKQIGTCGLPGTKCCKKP


Tests used:
[1] = biological target: T1, human beta defensin 3 (HBD3); assay: aggregate formation
[2] = biological target: T2, human beta defensin 2 (HBD2); assay: microscopy of complex

Binder | binding result [1] | binding result [2]
ATCGACTCTCGAGCGTTCTC (ssDNA, phosphorothioate (underlining lost in text)) [CpG ODN K3] | binds | –
GGTGCATCGATGCAGGGGGG (ssDNA, phosphorothioate at some nucleotides (underlining lost in text)) [FITC-CpG ODN D35] | – | binds
